Source: the supplement of paper PMC7877785
± gives the uncertainty stated by the source.

Experiment: self-splicing fitness, log relative to wild type (ln ratio); higher = more splicing; Tetrahymena group I intron in knt gene, E. coli kanamycin selection, DiMSum; sequences stand for … in CUCUCU…GGAGGGAAAAGUUAUCAGGCAUGCACCUGGUAGCUAGUCUUUAAACCAAUAGAUUGCAUCGGUUUAAAAGGCAAGACCGUCAAAUUGCGGGAAAGGGGUCAACAGCCGUUCAGUACCAAGUCUCAGGGGAAACUUUGAGAUGGCCUUGCAAAGGGUAUGGUAAUAAGCUGACGGACAUGGUCCUAACCACGCAGCCAAGUCCUAAGUCAACAGAUCUUCUGUUGAUAUGGAUGCAGUUCACAGACUAAAUGUCGGUCGGGGAAGAUGUAUUCUUCUCAUAAGAUAUAGUCGGACCUCUCCUUAAUGGGAGCUAGCGGAUGAAGUGAUGCAACACUGGAGCCGCUGGGAACUAAUUUGUAUGCGAAAGUAUAUUGAUUAGUUUUGGAGUACUCGUGGUCG
Summary of the method: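 Pooled colonies went to amplicon sequencing on an Illumina HiSeq 2500 after six replicate transformations. The plates were LB agar with 100 μg/mL carbenicillin, 50 μM IPTG and 0.2% rhamnose, with or without 25 μg/mL kanamycin, incubated overnight at 37°C or 30°C. The E. coli BL21(DE3) library had all eight P1ex-region intron nucleotides randomised, the intron placed in the knt kanamycin-resistance gene on pET-22b(+). DiMSum fitness is the error-weighted combination of replicate fold changes, kanamycin against none, normalised to wild type.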

Sequence | self-splicing fitness (ln) (30 °C) | self-splicing fitness (ln) (37 °C)
CAGCAGCAAUAUUACGCUUA | -1.51 ± 0.13 | -0.645 ± 0.12
CAGCAGCAAUAUUACGGACA | -2.86 ± 0.17 | -2.28 ± 0.17
CAGCAGCAAUAUUACGGCCA | -0.605 ± 0.091 | -0.22 ± 0.11
CAGCAGCAAUAUUACGGGGA | -1.98 ± 0.18 | -2.22 ± 0.19
CAGCAGCAAUAUUACGGGGU | -3.28 ± 0.15 | -2.57 ± 0.16
CAGCAGCAAUAUUACGGGUG | -1.35 ± 0.082 | -0.904 ± 0.085
CAGCAGCAAUAUUACGGUCC | -3.63 ± 0.22 | -1.63 ± 0.2
CAGCAGCAAUAUUACGUAUC | -3.6 ± 0.19 | -2.13 ± 0.13
CAGCAGCAAUAUUACGUCAC | -1.69 ± 0.24 | -2.75 ± 0.28
CAGCAGCAAUAUUACGUCCC | -2.38 ± 0.47 | 
CAGCAGCAAUAUUACGUCCU | -2.31 ± 0.17 | -0.614 ± 0.14
CAGCAGCAAUAUUACGUCUA | -0.137 ± 0.045 | 0.377 ± 0.06
CAGCAGCAAUAUUACGUCUC | -1.15 ± 0.064 | -0.898 ± 0.075
CAGCAGCAAUAUUACGUGCA | -1.03 ± 0.061 | -0.673 ± 0.066
CAGCAGCAAUAUUACGUGCU | -3.3 ± 0.13 | -1.94 ± 0.12
CAGCAGCAAUAUUACGUGUA | -2.97 ± 0.078 | -1.65 ± 0.072
CAGCAGCAAUAUUACGUUUC | -3.76 ± 0.17 | -2.53 ± 0.2
CAGGAGCAAUAUUACGAAAU | -2.55 ± 0.33 | 
CAGGAGCAAUAUUACGAACC |  | -1.07 ± 0.24
CAGGAGCAAUAUUACGACUG |  | -2.83 ± 0.38
CAGGAGCAAUAUUACGAGAG | -1.92 ± 0.15 | -1.67 ± 0.17
CAGGAGCAAUAUUACGAUAU | -1.88 ± 0.17 | -2.37 ± 0.35
CAGGAGCAAUAUUACGAUGC |  | -2.83 ± 0.26
CAGGAGCAAUAUUACGCAAA | -4.2 ± 0.46 | 
CAGGAGCAAUAUUACGCAAG | -2.98 ± 0.35 | -1.06 ± 0.27

Sequence | self-splicing fitness (ln) (30 °C) | self-splicing fitness (ln) (37 °C)
CAGGAGCAAUAUUACGCGAA | -1.4 ± 0.17 | -2.07 ± 0.23
CAGGAGCAAUAUUACGCGAU | -3.06 ± 0.28 | 
CAGGAGCAAUAUUACGCGUC | -4.22 ± 0.36 | -3.04 ± 0.4
CAGGAGCAAUAUUACGCUAG | -1.28 ± 0.23 | -1.1 ± 0.27
CAGGAGCAAUAUUACGCUGG | -1.96 ± 0.26 | -0.934 ± 0.24
CAGGAGCAAUAUUACGCUGU | -3.13 ± 0.43 | -2.65 ± 0.44
CAGGAGCAAUAUUACGGAAC | -3.67 ± 0.43 | 
CAGGAGCAAUAUUACGGAGA | -2.81 ± 0.28 | -2.34 ± 0.37
CAGGAGCAAUAUUACGGGCA | -2.48 ± 0.15 | -2.35 ± 0.22
CAGGAGCAAUAUUACGGUCU | -3.85 ± 0.22 | -2.84 ± 0.17
CAGGAGCAAUAUUACGUACG | -1.06 ± 0.088 | 0.312 ± 0.13
CAGGAGCAAUAUUACGUAGG | -0.929 ± 0.1 | 0.172 ± 0.11
CAGGAGCAAUAUUACGUAUG | -2.27 ± 0.082 | -1.5 ± 0.11
CAGGAGCAAUAUUACGUGGG | -2.85 ± 0.18 | -2.31 ± 0.15
CAGGAGCAAUAUUACGUGUU | -3.24 ± 0.17 | -2.55 ± 0.27
CAGGAGCAAUAUUACGUUGU | -3.34 ± 0.17 | -2.26 ± 0.19
CAGUAGCAAUAUUACGAAGC |  | -3.05 ± 0.32
CAGUAGCAAUAUUACGACCA | -0.792 ± 0.28 | -0.375 ± 0.27
CAGUAGCAAUAUUACGAGAC | -3.08 ± 0.24 | -1.31 ± 0.28
CAGUAGCAAUAUUACGAUGC | -3.51 ± 0.28 | -2.67 ± 0.3
CAGUAGCAAUAUUACGCAGC | -3.05 ± 0.34 | -1.3 ± 0.33
CAGUAGCAAUAUUACGCCGA | -3.13 ± 0.35 | -0.00684 ± 0.18
CAGUAGCAAUAUUACGCCUU | -1.35 ± 0.4 | 
CAGUAGCAAUAUUACGCGAC |  | -1 ± 0.32
CAGUAGCAAUAUUACGCGAU | -2.39 ± 0.28 | -2.67 ± 0.34

Sequence | self-splicing fitness (ln) (30 °C) | self-splicing fitness (ln) (37 °C)
CAGUAGCAAUAUUACGCGCU | -1.56 ± 0.26 | -1.28 ± 0.27
CAGUAGCAAUAUUACGCUUU | -4.27 ± 0.24 | -1.93 ± 0.17
CAGUAGCAAUAUUACGGCAC | -2.42 ± 0.21 | -2.06 ± 0.25
CAGUAGCAAUAUUACGGCGA | -2.45 ± 0.26 | -1.9 ± 0.29
CAGUAGCAAUAUUACGGCUG | -3.85 ± 0.47 | -2.37 ± 0.34
CAGUAGCAAUAUUACGGGGA | -3.9 ± 0.4 | -2.23 ± 0.21
CAGUAGCAAUAUUACGGUGC | -3.8 ± 0.28 | -3.2 ± 0.31
CAGUAGCAAUAUUACGGUGU | -3.63 ± 0.3 | -0.678 ± 0.15
CAGUAGCAAUAUUACGUACA | -1.46 ± 0.14 | -1.83 ± 0.16
CAGUAGCAAUAUUACGUCCC |  | -1.76 ± 0.4
CAUAAGCAAUAUUACGAACG | -0.246 ± 0.074 | -0.0693 ± 0.087
CAUAAGCAAUAUUACGAUAC |  | -2.28 ± 0.34
CAUAAGCAAUAUUACGAUCG | -0.428 ± 0.1 | -0.532 ± 0.11
CAUAAGCAAUAUUACGAUGC | -3.14 ± 0.19 | -2.34 ± 0.28
CAUAAGCAAUAUUACGAUGU | -3.66 ± 0.14 | -2.3 ± 0.14
CAUAAGCAAUAUUACGAUUC | -3.25 ± 0.2 | -3.11 ± 0.26
CAUAAGCAAUAUUACGCAAG | -2.14 ± 0.11 | -0.944 ± 0.13
CAUAAGCAAUAUUACGCGCU | -3.52 ± 0.28 | -2.34 ± 0.2
CAUAAGCAAUAUUACGCGGA | -3.61 ± 0.24 | -1.68 ± 0.16
CAUAAGCAAUAUUACGCUCA | -1.25 ± 0.088 | -1.18 ± 0.11
CAUAAGCAAUAUUACGGCAC | -2.85 ± 0.22 | -2.59 ± 0.21
CAUAAGCAAUAUUACGGGAG | -1.96 ± 0.097 | -1.14 ± 0.095
CAUAAGCAAUAUUACGGGUG | -2.3 ± 0.08 | -1.17 ± 0.078
CAUAAGCAAUAUUACGGUGA | -3.65 ± 0.27 | -2.36 ± 0.23
CAUAAGCAAUAUUACGUAAC | -3.03 ± 0.23 | -2.1 ± 0.26

Sequence | self-splicing fitness (ln) (30 °C) | self-splicing fitness (ln) (37 °C)
CAUAAGCAAUAUUACGUAGC | -3.15 ± 0.17 | -2.96 ± 0.2
CAUAAGCAAUAUUACGUCGC | -4.06 ± 0.18 | -3.2 ± 0.17
CAUAAGCAAUAUUACGUGCG | -1.15 ± 0.079 | -0.792 ± 0.098
CAUAAGCAAUAUUACGUGGA | -3.5 ± 0.22 | -2.53 ± 0.21
CAUAAGCAAUAUUACGUUGG | -2.6 ± 0.095 | -1.26 ± 0.094
CAUAAGCAAUAUUACGUUGU | -3.55 ± 0.15 | -2.98 ± 0.18
CAUCAGCAAUAUUACGAUCC | -1.56 ± 0.12 | -0.817 ± 0.16
CAUCAGCAAUAUUACGCACA | -0.992 ± 0.098 | -1.21 ± 0.11
CAUCAGCAAUAUUACGCCCG | -0.306 ± 0.12 | 0.0609 ± 0.15
CAUCAGCAAUAUUACGCCGU | -2.51 ± 0.11 | -1.13 ± 0.15
CAUCAGCAAUAUUACGCGAA | -3.13 ± 0.14 | -1.93 ± 0.12
CAUCAGCAAUAUUACGCGCA | -1.21 ± 0.1 | -0.493 ± 0.12
CAUCAGCAAUAUUACGCGGC | -3.39 ± 0.2 | -2.8 ± 0.29
CAUCAGCAAUAUUACGCUAG | -0.614 ± 0.075 | -0.102 ± 0.093
CAUCAGCAAUAUUACGGAGC | -3.44 ± 0.31 | -2.1 ± 0.31
CAUCAGCAAUAUUACGGCGA | -3.11 ± 0.28 | -1.27 ± 0.15
CAUCAGCAAUAUUACGGCUA | -2.82 ± 0.2 | -1.44 ± 0.16
CAUCAGCAAUAUUACGGGGA | -2.59 ± 0.14 | -1.22 ± 0.12
CAUCAGCAAUAUUACGUACC | -2.74 ± 0.3 | -1.63 ± 0.28
CAUCAGCAAUAUUACGUAGC | -3.39 ± 0.21 | -1.98 ± 0.19
CAUCAGCAAUAUUACGUCUA | -2.35 ± 0.095 | -1.58 ± 0.08
CAUCAGCAAUAUUACGUGCC | -2.97 ± 0.16 | -2.47 ± 0.24
CAUCAGCAAUAUUACGUUCG | 0.13 ± 0.046 | -0.286 ± 0.063
CAUCAGCAAUAUUACGUUGA | -3 ± 0.15 | -3.46 ± 0.24
